PMC3149827 (2011)

Key:
[1] = target: Soluble expressed urokinase plasminogen activator receptor; experiment: SPR
gC1qR (Homo sapiens) = gC1qR (Homo sapiens) (UniProt Q07021); conditions: cited from earlier work
cytokeratin 1 = target: T1, cytokeratin 1 (Homo sapiens, UniProt P04264); experiment: SPR
T1 chain: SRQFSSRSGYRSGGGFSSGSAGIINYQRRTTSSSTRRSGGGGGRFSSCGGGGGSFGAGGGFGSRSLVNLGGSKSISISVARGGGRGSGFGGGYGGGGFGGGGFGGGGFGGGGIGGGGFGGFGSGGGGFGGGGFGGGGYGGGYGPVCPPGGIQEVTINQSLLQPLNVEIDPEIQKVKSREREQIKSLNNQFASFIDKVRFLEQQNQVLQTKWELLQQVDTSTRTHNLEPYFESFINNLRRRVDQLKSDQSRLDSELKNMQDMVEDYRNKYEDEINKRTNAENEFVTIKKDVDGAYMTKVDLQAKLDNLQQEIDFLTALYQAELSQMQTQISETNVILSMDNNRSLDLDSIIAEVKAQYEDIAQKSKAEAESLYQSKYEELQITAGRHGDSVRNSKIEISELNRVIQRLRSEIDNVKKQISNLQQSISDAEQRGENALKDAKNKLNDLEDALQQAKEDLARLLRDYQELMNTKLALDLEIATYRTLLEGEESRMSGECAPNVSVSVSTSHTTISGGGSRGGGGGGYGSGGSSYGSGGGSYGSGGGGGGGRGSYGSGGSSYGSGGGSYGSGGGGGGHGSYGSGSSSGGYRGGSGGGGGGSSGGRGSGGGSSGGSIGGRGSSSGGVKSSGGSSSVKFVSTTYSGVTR

gC1qR (Homo sapiens), sequence (Q07021 74-282): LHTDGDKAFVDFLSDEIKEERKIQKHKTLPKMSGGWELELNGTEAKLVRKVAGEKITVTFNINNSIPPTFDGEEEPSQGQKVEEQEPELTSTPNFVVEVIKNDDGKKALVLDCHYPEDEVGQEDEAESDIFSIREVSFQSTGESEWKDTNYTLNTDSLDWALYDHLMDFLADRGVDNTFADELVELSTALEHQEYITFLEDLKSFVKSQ

For “Single-chain urokinase-type plasminogen activator (ligand)”, the Kd [1] was 0.1 to 1 nM.

For “cleaved high-molecular-weight kininogen (HKa) (from UniProt P01042)”, the Kd (gC1qR (Homo sapiens)) is given as 9 nM.

B1: high-molecular-weight kininogen (HK/HKa) (protein)
chain: QESQSEEIDCNDKDLFKAVDAALKKYNSQNQSNNQFVLYRITEATKTVGSDTFYSFKYEIKEGDCPVQSGKTWQDCEYKDAAKAATGECTATVGKRSSTKFSVATQTCQITPAEGPVVTAQYDCLGCVHPISTQSPDLEPILRHGIQYFNNNTQHSSLFMLNEVKRAQRQVVAGLNFRITYSIVQTNCSKENFLFLTPDCKSLWNGDTGECTDNAYIDIQLRIASFSQNCDIYPGKDFVQPPTKICVGCPRDIPTNSPELEETLTHTITKLNAENNATFYFKIDNVKKARVQVVAGKKYFIDFVARETTCSKESNEELTESCETKKLGQSLDCNAEVYVVPWEKKIYPTVNCQPLGMISLMKRPPGFSPFRSSRIGEIKEETTVSPPHTSMAPAQDEERDSGKEQGHTRRHDWGHEKQRKHNLGHGHKHERDQGHGHQRGHGLGHGHEQQHGLGHGHKFKLDDDLEHQGGHVLDHGHKHKHGHGHGKHKNKGKKNGKHNGWKTEHLASSSEDSTTPSAQTQEKTEGPTPIPSLAKPGVTVTFSDFQDSDLIATMMPPISPAPIQSDDDWIPDIQIDPNGLSFNPISDFPDTTSPKCPGRPWKSVSEINPTTQMKESYYFDLTDGLS
modifications: Zn2+
In the case of B1, the Kd (cytokeratin 1) is reported as about 10 nM.
